Reference: publication doi:10.1101/2025.06.04.657969, “Complex rheology of condensin in entangled DNA”

Experiments:
[1] = biological target: T1, condensin hinge (Smc2/Smc4 hinge heterodimer) (Saccharomyces cerevisiae, UniProt P38989;Q12267 396-792;555-951); assay: fluorescence polarization; 20 nM DNA; 5 mM MgCl2; EMSA: 50 mM Tris-HCl pH 7.5, 50 mM KCl, 125 mM NaCl, 5 mM MgCl2, 5% glycerol, 1 mM DTT, 10 min on ice, gel at 4 C; FP: 25 mM Tris-HCl pH 7.5, 100 mM NaCl, 5 mM; settings: protein: recombinant; tags: N-terminal His6-TEV on Smc2; Smc4 untagged; copies: 1;1; label: 5' 6-FAM on strand 1; blunt
T1 sequence 1: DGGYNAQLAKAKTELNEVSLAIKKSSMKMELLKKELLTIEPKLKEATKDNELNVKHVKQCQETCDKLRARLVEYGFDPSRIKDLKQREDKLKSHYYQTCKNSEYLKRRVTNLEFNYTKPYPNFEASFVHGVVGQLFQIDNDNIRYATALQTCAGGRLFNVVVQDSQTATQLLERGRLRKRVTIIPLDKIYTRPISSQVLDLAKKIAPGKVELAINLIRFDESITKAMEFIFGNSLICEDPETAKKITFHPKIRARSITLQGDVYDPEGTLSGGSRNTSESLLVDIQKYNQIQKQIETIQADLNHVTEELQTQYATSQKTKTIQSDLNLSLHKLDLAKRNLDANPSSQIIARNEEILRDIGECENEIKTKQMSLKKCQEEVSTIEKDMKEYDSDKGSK
T1 sequence 2: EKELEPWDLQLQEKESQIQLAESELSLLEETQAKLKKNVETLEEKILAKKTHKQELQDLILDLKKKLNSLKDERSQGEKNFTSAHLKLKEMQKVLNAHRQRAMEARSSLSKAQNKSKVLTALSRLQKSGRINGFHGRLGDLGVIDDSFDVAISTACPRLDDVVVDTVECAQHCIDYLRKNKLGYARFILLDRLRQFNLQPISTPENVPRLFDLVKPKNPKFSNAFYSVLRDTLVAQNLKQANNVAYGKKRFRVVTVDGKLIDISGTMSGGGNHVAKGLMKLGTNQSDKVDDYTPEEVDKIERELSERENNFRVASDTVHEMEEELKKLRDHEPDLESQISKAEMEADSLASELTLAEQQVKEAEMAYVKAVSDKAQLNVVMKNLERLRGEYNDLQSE

[2] = biological target: T1, condensin hinge (Smc2/Smc4 hinge …); assay: EMSA; 10 nM DNA; 5 mM MgCl2; Fig. 2c legend gives 0.2-0.3 uM and a 25 bp oligo; EMSA: 50 mM Tris-HCl pH 7.5, 50 mM KCl, 125 mM NaCl, 5 mM MgCl2, 5% glycerol, 1 mM DTT, 10 min on ice, gel at 4 C; FP: 25 mM Tris-HCl pH 7.5, 100 mM NaCl, 5 mM; settings: protein: recombinant; tags: N-terminal His6-TEV on Smc2; Smc4 untagged; copies: 1;1; label: 5' 6-FAM on strand 1; blunt

B1: 6-FAM 50-bp dsDNA (dsDNA)
DNA 1: GGATACGTAACAACGCTTATGCATCGCCGCCGCTACATCCCTGAGCTGAC
DNA 2: GTCAGCTCAGGGATGTAGCGGCGGCGATGCATAAGCGTTGTTACGTATCC
B1 gave a Kd [1] of ~700 nM and a Kd [2] of ~141 nM.
